Three molecules from patent US20020045564A1, “Methods of modulating muscle contraction” (priority 1997, published 2002) can be followed below.

Assay [1] has as its target T1, cardiac LC20 (Homo sapiens, UniProt P10916).
T1 construct: using isolated cardiac myofibrils and associated proteins; from tissue
T1 sequence (P10916 1-166): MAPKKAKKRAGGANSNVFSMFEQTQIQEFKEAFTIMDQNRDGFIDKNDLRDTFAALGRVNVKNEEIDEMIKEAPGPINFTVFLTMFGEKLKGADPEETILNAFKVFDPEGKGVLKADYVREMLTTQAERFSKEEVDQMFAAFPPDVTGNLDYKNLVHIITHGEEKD
The assay is described as follows: In vitro phosphorylation of cardiac LC20. The assay is classed as biochemical. The method, then: In vitro phosphorylation of intact smooth, skeletal, cardiac, platelet, and Dictyostelium myosin and isolated LC20, caldesmon, and caldesmon fragments, and cardiac and skeletal Tn were carried out at 25° C. in 10 mM Tris, pH 7.0, 50 mM sodium chloride, 1 mM [γ^32P]ATP (5×10^5 cpm per nmol) or at 37° C. in the same buffer except containing 150 mM sodium chloride. Aliquots of the reaction mixture were analyzed for protein phosphorylation using Whatman P81 paper and SDS-gel electrophoresis/autoradiography as previously described (Childs, T. J. et al. 1992. J. Biol. Chem. 267:22853-22859). In the case of cardiac and skeletal Tn, the three Tn subunits (TnI, TnT, and TnC) were separated by reversed phase HPLC. The individual subunits were analyzed for incorporation of ^32P (i.e., phosphorylation by PAK) by SDS-PAGE and autoradiography and direct counting.
Phosphorylated amino acids were identified by thin-layer electrophoresis after partial hydrolysis of the phosphorylated proteins in 6 N hydrochloric acid as previously described (Childs, T. J. et al. 1992. J. Biol. Chem. 267:22853-22859; Mak, A. S. et al. 1991. J. Biol. Chem. 266:19971-19975; Mak, A. S. et al. 1991. J. Biol. Chem. 266:6678-6681). […]

For assay [2], the system named is actin-tropomyosin. The assay is described as follows: Actin-tropomyosin binding assay (centrifugation). The note with it: FIG. 5. The method, then: To quantitate the amount of smooth muscle caldesmon and smooth muscle tropomyosin bound to the skeletal actin thin filament (>95% amino acid homology to smooth muscle actin), centrifugation studies were carried out in binding buffer consisting of 20 mM Tris-HCl pH 7.2, 10 mM KCl, 5 mM MgCl2 and 1 mM DTT. The concentration of actin was 5 nmole/200 μl (˜25 μM) and the mole ratio of actin to tropomyosin was 7:2. Increasing quantities of unphosphorylated or phosphorylated caldesmon were added to the actin-tropomyosin mixture. Protein concentrations were determined by the Lowry method or by absorbance at 280 nm. Samples were spun for 30 min at approximately 95,000 rpm, resulting in the pelleting of over 95% of the actin. The obtained pellets were dissolved in 100 μl of 0.05% aqueous trifluroacetic acid (TFA) and injected on a Zorbax C8 SB300 reversed-phase column (4.6 mm×250 mm) on a Varian HPLC system (Star series). The various proteins were eluted using a 2% B/min linear A/B gradient with a 5 min initial isocratic hold, where solvent A is 0.05% aqueous TFA and solvent B is 0.05% TFA in acetonitrile. The flow rate was 1 ml/min. The peak areas were determined at 210 nm and converted to nanomoles using a standard curve obtained for each protein. […] The experiments were done in triplicate and the standard deviation calculated.

Assay [3] deals with smooth muscle myosin ATPase (Gallus gallus, UniProt P02607+P10587). The experiment in a line: Actin-tropomyosin activated ATPase activity of smooth muscle subfragment 1 (S1). The assay is classed as biochemical. Conditions: FIG. 6. On the procedure: Reactions consisted of 10 μM actin, 2 μM tropomyosin, 0.5 μM S1, and variable concentrations of unphosphorylated and phosphorylated caldesmon. The buffer contained 40 mM Tris-HCl pH 7.8, 50 mM KCl, 5 mM MgCl2, 1 mM DTT at 37° C. Reactions were performed in a 96 well microtitre plate, triggered by the addition of 4 mM ATP. The phosphate assay was performed according to the method of Chifflet, S. et al. 1988. (Anal. Biochem. 168:1-4). Briefly, reactions were terminated by the addition of an equal volume (100 μL) of reagent which contained 6% (w/v) SDS, 3% (w/v) ascorbic acid, 1M HCl, 0.5% (w/v) ammonium molybdate. The mixture was incubated for 5 minutes prior to the addition of a second reagent which contained 2% sodium citrate, 2% sodium m-arsenite, and 2% acetic acid. Blue colour developed quickly over 5 minutes. Microtitre plates were read at 650 nm on an E-max ELISA plate reader (Molecular Dynamics, Sunnyvale Calif.). Phosphate was determined by comparing experimental values to standard phosphate values obtained through dilution of phosphate-buffered saline (PBS).
smooth muscle myosin ATPase, sequence (P10587 84-789 limits assumed): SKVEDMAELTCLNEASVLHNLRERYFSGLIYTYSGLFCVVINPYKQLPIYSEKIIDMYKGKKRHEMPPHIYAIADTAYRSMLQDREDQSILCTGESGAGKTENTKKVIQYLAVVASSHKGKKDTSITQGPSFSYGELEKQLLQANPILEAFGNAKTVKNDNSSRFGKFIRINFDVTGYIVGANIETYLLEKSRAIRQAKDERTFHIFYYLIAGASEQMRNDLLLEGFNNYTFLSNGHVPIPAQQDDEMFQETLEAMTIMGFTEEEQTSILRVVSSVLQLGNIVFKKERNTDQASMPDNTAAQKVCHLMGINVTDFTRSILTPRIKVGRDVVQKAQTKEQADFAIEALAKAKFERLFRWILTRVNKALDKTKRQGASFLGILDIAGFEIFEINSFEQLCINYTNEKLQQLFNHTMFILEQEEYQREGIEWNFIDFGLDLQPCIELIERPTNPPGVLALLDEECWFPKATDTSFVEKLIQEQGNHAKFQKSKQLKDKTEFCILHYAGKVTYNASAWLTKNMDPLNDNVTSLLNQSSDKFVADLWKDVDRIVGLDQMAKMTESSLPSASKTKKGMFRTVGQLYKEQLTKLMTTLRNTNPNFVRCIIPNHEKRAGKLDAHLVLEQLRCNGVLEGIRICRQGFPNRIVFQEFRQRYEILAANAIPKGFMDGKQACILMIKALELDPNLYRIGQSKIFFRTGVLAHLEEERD
smooth muscle myosin ATPase, sequence (P02607 2-151 limits assumed): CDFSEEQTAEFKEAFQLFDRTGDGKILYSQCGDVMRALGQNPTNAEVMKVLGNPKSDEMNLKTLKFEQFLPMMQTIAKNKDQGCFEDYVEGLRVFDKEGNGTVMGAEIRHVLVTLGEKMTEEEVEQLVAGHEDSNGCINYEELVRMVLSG

With “MLCK: myosin light chain kinase purified from chicken gizzard”, the “phosphorylation of cardiac LC20” value in assay [1] is recorded as 0.2 mol phosphate per mol protein.

B1: PAK-phosphorylated caldesmon: caldesmon phosphorylated by PAK (protein, UniProt P12957 1-771, looked up)
Caldesmon: MDDFERRRELRRQKREEMRLEAERLSYQRNDDDEEEAARERRRRARQERLRQKEEGDVSGEVTEKSEVNAQNSVAEEETKRSTDDEAALLERLARREERRQKRLQEALERQKEFDPTITDGSLSVPSRREVNNVEENEITGKEEKVETRQGRCEIEETETVTKSYQRNNWRQDGEEEGKKEEKDSEEEKPKEVPTEENQVDVAVEKSTDKEEVVETKTLAVNAENDTNAMLEGEQSITDAADKEKEEAEKEREKLEAEEKERLKAEEEKKAAEEKQKAEEEKKAAEERERAKAEEEKRAAEERERAKAEEERKAAEERERAKAEEERKAAEERAKAEEERKAAEERAKAEEERKAAEERAKAEKERKAAEERERAKAEEEKRAAEEKARLEAEKLKEKKKMEEKKAQEEKAQANLLRKQEEDKEAKVEAKKESLPEKLQPTSKKDQVKDNKDKEKAPKEEMKSVWDRKRGVPEQKAQNGERELTTPKLKSTENAFGRSNLKGAANAEAGSEKLKEKQQEAAVELDELKKRREERRKILEEEEQKKKQEEAERKIREEEEKKRMKEEIERRRAEAAEKRQKVPEDGVSEEKKPFKCFSPKGSSLKIEERAEFLNKSAQKSGMKPAHTTAVVSKIDSRLEQYTSAVVGNKAAKPAKPAASDLPVPAEGVRNIKSMWEKGNVFSSPGGTGTPNKETAGLKVGVSSRINEWLTKTPEGNKSPAPKPSDLRPGDVSGKRNLWEKQSVEKPAASSSKVTATGKKSETNGLRQFEKEP
modifications: phosphorylated by PAK
Regarding B1, the “change in affinity of caldesmon for actin(-tropomyosin), phosphorylated vs unphosphorylated” value in assay [2] was “approximately two-fold reduction”. The “inhibition of smooth muscle myosin ATPase activity” value in assay [3] is on record as “inhibition was clearly released”.

B2: caldesmon: unphosphorylated smooth muscle caldesmon purified from chicken gizzard (protein, UniProt P12957 1-771, looked up)
Caldesmon: MDDFERRRELRRQKREEMRLEAERLSYQRNDDDEEEAARERRRRARQERLRQKEEGDVSGEVTEKSEVNAQNSVAEEETKRSTDDEAALLERLARREERRQKRLQEALERQKEFDPTITDGSLSVPSRREVNNVEENEITGKEEKVETRQGRCEIEETETVTKSYQRNNWRQDGEEEGKKEEKDSEEEKPKEVPTEENQVDVAVEKSTDKEEVVETKTLAVNAENDTNAMLEGEQSITDAADKEKEEAEKEREKLEAEEKERLKAEEEKKAAEEKQKAEEEKKAAEERERAKAEEEKRAAEERERAKAEEERKAAEERERAKAEEERKAAEERAKAEEERKAAEERAKAEEERKAAEERAKAEKERKAAEERERAKAEEEKRAAEEKARLEAEKLKEKKKMEEKKAQEEKAQANLLRKQEEDKEAKVEAKKESLPEKLQPTSKKDQVKDNKDKEKAPKEEMKSVWDRKRGVPEQKAQNGERELTTPKLKSTENAFGRSNLKGAANAEAGSEKLKEKQQEAAVELDELKKRREERRKILEEEEQKKKQEEAERKIREEEEKKRMKEEIERRRAEAAEKRQKVPEDGVSEEKKPFKCFSPKGSSLKIEERAEFLNKSAQKSGMKPAHTTAVVSKIDSRLEQYTSAVVGNKAAKPAKPAASDLPVPAEGVRNIKSMWEKGNVFSSPGGTGTPNKETAGLKVGVSSRINEWLTKTPEGNKSPAPKPSDLRPGDVSGKRNLWEKQSVEKPAASSSKVTATGKKSETNGLRQFEKEP
In the case of B2, the “inhibition of smooth muscle myosin ATPase activity” value in assay [3] is reported as “inhibited”.
